In US7838266B2, “Proaerolysin containing protease activation sequences and methods of use for treatment of prostate cancer” (University of Victoria Innovation and Development …, priority 2001, dated 2010):
No end group written: not given here.

How the values were obtained:
PSA = PSA (Homo sapiens, UniProt P07288); settings: cited from earlier work; for Kcat / Km: aminomethyl coumarin labeled peptides, 50 mM Tris, 0.1 M NaCl, pH 7.8
[1] = test system: E14 mouse T-cell lymphoma cells (ATCC TIB-39); experiment: In vitro toxicity, MTS/PMS cell viability assay; format: cell-based; settings: 4 hours at 37° C., 1×10^−13 M-1×10^−7M toxin, FIG. 3; read-out: LC50 (the source's name)
Protocol: To determine in vitro toxicity, a cell viability assay was performed as follows. E14 mouse T-cell lymphoma cells (ATCC TIB-39) were cultured at 10^+5 cells per well in MTS/PMS Cell Titer 96 (Promega). […] Cell viability was subsequently determined by reading the plate on a plate reader, as directed by the manufacturer of the MTS/PMS kit.

mice = experiment: In vivo toxicity after single intravenous injection
Protocol: To determine in vivo toxicity, proaerolysin variants were administered to mice intravenously.

[2] = test system: human LNCaP prostate cancer xenografts which produce PSA; experiment: Intratumoral injection into PSA-producing LNCaP xenografts; format: in vivo; settings: nude mice
Protocol: The percent of tumor within sample was determined by calculating the ratio of viable tumor to total tumor area following image analysis of thin tumor sections.

PSA, sequence (P07288 25-261): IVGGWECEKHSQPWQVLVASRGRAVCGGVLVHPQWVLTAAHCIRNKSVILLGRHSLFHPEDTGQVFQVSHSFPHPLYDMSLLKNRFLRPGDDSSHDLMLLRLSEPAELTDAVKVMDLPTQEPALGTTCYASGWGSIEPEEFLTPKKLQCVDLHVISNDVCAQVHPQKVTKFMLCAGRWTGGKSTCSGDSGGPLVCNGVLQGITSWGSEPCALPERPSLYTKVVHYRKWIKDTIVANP

Substance	Kcat (PSA)	Km (PSA)	efficiency and specificity of hydrolysis by PSA (PSA)	CC50 [1]	lethality after dose of 1 μg (mice; intravenous, 1 μg)	LD100 at 24 hours (dose that kills 100% of animals within 24 hours) (mice; single IV injection, total dose)	antitumor effect against LNCaP xenografts [2]
ATKSKQH (also: fluorescently labeled (aminomethyl coumarin); listed as Homo sapiens) [ATKSKQH (17), PSA substrate peptide]	0.0091 s⁻¹	1310 µM	not efficient, but were specifically hydrolyzed by PSA	–	–	–	–
EHSSKLQ (also: fluorescently labeled (aminomethyl coumarin); listed as Homo sapiens) [EHSSKLQ (20), PSA substrate peptide]	0.012 s⁻¹	1160 µM	–	–	–	–	–
HSSKLQ (listed as Homo Sapiens) [HSSKLQ (5), PSA substrate peptide]	0.011 s⁻¹	470 µM	–	–	–	–	–
KGISSQY (also: fluorescently labeled (aminomethyl coumarin); listed as Homo sapiens) [KGISSQY (15), PSA substrate peptide]	0.043 s⁻¹	160 µM	efficiently but not specifically hydrolyzed by PSA	–	–	–	–
KGLSSQC (also: fluorescently labeled (aminomethyl coumarin); listed as Homo sapiens) [KGLSSQC (18), PSA substrate peptide]	0.0017 s⁻¹	300 µM	–	–	–	–	–
LGGSSQL (also: fluorescently labeled (aminomethyl coumarin); listed as Homo sapiens) [LGGSSQL (19), PSA substrate peptide]	0.0037 s⁻¹	900 µM	not efficient, but were specifically hydrolyzed by PSA	–	–	–	–
SKLQ (also: fluorescently labeled (aminomethyl coumarin); listed as Homo sapiens) [SKLQ (21), PSA substrate peptide]	0.020 s⁻¹	813 µM	–	–	–	–	–
SRKSQQY (also: fluorescently labeled (aminomethyl coumarin); listed as Homo sapiens) [SRKSQQY (16), PSA substrate peptide]	0.023 s⁻¹	90 µM	efficiently but not specifically hydrolyzed by PSA	–	–	–	–
Wild-type proaerolysin	–	–	–	0.15 nM	caused death within one hour	0.1 µg	minimal effect
